Measurements from patent publication US20160120951A1 (ZEALAND PHARMA A S, published 2016).
Numbered stars: 1 amine (or outer) side, 2 acyl side, 3 side chain; on linkers, the order of the positions; unused ones are H or OH. Square brackets hold non-standard residues; d marks the D form. Side chains are listed from the residue outwards. * marks the point of attachment. isoGlu = used interchangeably with γ-Glu; γGlu = O=C(O)[C@H](CCC(=O)[*:2])N[*:1]; Palmitoyl = CCCCCCCCCCCCCCCC(=O)*; Aib = CC(C)(N)C(=O)O

B1: Compound 20 (peptide)
peptide: H-H[Aib]EGTFTSDYSKYLDSK([γGlu-Palmitoyl])AAHDFVEWLLSA-OH
SMILES: CCCCCCCCCCCCCCCC(=O)N[C@@H](CCC(=O)NCCCC[C@H](NC(=O)[C@H](CO)NC(=O)[C@H](CC(=O)O)NC(=O)[C@H](CC(C)C)NC(=O)[C@H](Cc1ccc(O)cc1)NC(=O)[C@H](CCCCN)NC(=O)[C@H](CO)NC(=O)[C@H](Cc1ccc(O)cc1)NC(=O)[C@H](CC(=O)O)NC(=O)[C@H](CO)NC(=O)[C@@H](NC(=O)[C@H](Cc1ccccc1)NC(=O)[C@@H](NC(=O)CNC(=O)[C@H](CCC(=O)O)NC(=O)C(C)(C)NC(=O)[C@@H](N)Cc1c[nH]cn1)[C@@H](C)O)[C@@H](C)O)C(=O)N[C@@H](C)C(=O)N[C@@H](C)C(=O)N[C@@H](Cc1c[nH]cn1)C(=O)N[C@@H](CC(=O)O)C(=O)N[C@@H](Cc1ccccc1)C(=O)N[C@H](C(=O)N[C@@H](CCC(=O)O)C(=O)N[C@@H](Cc1c[nH]c2ccccc12)C(=O)N[C@@H](CC(C)C)C(=O)N[C@@H](CC(C)C)C(=O)N[C@@H](CO)C(=O)N[C@@H](C)C(=O)O)C(C)C)C(=O)O
B2: Compound 22 (peptide)
peptide: H-H[Aib]EGTFTSDYSKYLDSK([γGlu-Palmitoyl])AAHDFVEWLLSA-NH2
SMILES: CCCCCCCCCCCCCCCC(=O)N[C@@H](CCC(=O)NCCCC[C@H](NC(=O)[C@H](CO)NC(=O)[C@H](CC(=O)O)NC(=O)[C@H](CC(C)C)NC(=O)[C@H](Cc1ccc(O)cc1)NC(=O)[C@H](CCCCN)NC(=O)[C@H](CO)NC(=O)[C@H](Cc1ccc(O)cc1)NC(=O)[C@H](CC(=O)O)NC(=O)[C@H](CO)NC(=O)[C@@H](NC(=O)[C@H](Cc1ccccc1)NC(=O)[C@@H](NC(=O)CNC(=O)[C@H](CCC(=O)O)NC(=O)C(C)(C)NC(=O)[C@@H](N)Cc1c[nH]cn1)[C@@H](C)O)[C@@H](C)O)C(=O)N[C@@H](C)C(=O)N[C@@H](C)C(=O)N[C@@H](Cc1c[nH]cn1)C(=O)N[C@@H](CC(=O)O)C(=O)N[C@@H](Cc1ccccc1)C(=O)N[C@H](C(=O)N[C@@H](CCC(=O)O)C(=O)N[C@@H](Cc1c[nH]c2ccccc12)C(=O)N[C@@H](CC(C)C)C(=O)N[C@@H](CC(C)C)C(=O)N[C@@H](CO)C(=O)N[C@@H](C)C(N)=O)C(C)C)C(=O)O
B3: Compound 29 (peptide)
peptide: HXQGTFTSDYSKYLDSKAAHDFVEWLLSA
modifications: Aib at position 2; K(Hexadecanoyl-[8-Aminooctanoyl]) at position 17; C-terminal amide (NH2)
B4: Compound 33 (peptide)
peptide: HXQGTFTSDYSKYLDSKAAHDFVEWLLSA
modifications: Aib at position 2; K(Hexadecanoyl-isoGlu) at position 12; C-terminal amide (NH2)
B5: Compound 27 (peptide)
peptide: HXQGTFTSDYSKYLDSKAAHDFVEWLLSA
modifications: Aib at position 2; K(Hexadecanoyl-[4-Aminobutanoyl]) at position 17; C-terminal amide (NH2)
B6: Compound 25 (peptide)
peptide: HXQGTFTSDYSKYLDSKAAHDFVEWLLSA
modifications: Aib at position 2; K(Octadecanoyl-isoGlu) at position 17; C-terminal amide (NH2)
B7: Compound 31 (peptide)
peptide: HXQGTFTSDYSKYLDSKAAHDFVEWLLSA
modifications: Aib at position 2; K(Hexadecanoyl-[3-Aminopropanoyl]) at position 17; C-terminal amide (NH2)
B8: Compound 21 (peptide)
peptide: HXQGTFTSDYSKYLDSKAAHDFVEWLLSA
modifications: Aib at position 2; K(Hexadecanoyl-isoGlu) at position 17; free C-terminal acid (OH)
B9: Compound 30 (peptide)
peptide: HXQGTFTSDYSKYLDSKAAHDFVEWLLSA
modifications: Aib at position 2; K(Hexadecanoyl-isoLys) at position 17; C-terminal amide (NH2)
B10: Compound 32 (peptide)
peptide: HXQGTFTSDYSKYLDSXAAHDFVEWLLSA
modifications: Aib at position 2; Orn(Hexadecanoyl-isoGlu) at position 17; C-terminal amide (NH2)
B11: Compound 18 (peptide)
peptide: H-H[Aib]QGTFTSDYSKYLDSK([γGlu-Palmitoyl])AAHDFVEWLLS-OH
SMILES: CCCCCCCCCCCCCCCC(=O)N[C@@H](CCC(=O)NCCCC[C@H](NC(=O)[C@H](CO)NC(=O)[C@H](CC(=O)O)NC(=O)[C@H](CC(C)C)NC(=O)[C@H](Cc1ccc(O)cc1)NC(=O)[C@H](CCCCN)NC(=O)[C@H](CO)NC(=O)[C@H](Cc1ccc(O)cc1)NC(=O)[C@H](CC(=O)O)NC(=O)[C@H](CO)NC(=O)[C@@H](NC(=O)[C@H](Cc1ccccc1)NC(=O)[C@@H](NC(=O)CNC(=O)[C@H](CCC(N)=O)NC(=O)C(C)(C)NC(=O)[C@@H](N)Cc1c[nH]cn1)[C@@H](C)O)[C@@H](C)O)C(=O)N[C@@H](C)C(=O)N[C@@H](C)C(=O)N[C@@H](Cc1c[nH]cn1)C(=O)N[C@@H](CC(=O)O)C(=O)N[C@@H](Cc1ccccc1)C(=O)N[C@H](C(=O)N[C@@H](CCC(=O)O)C(=O)N[C@@H](Cc1c[nH]c2ccccc12)C(=O)N[C@@H](CC(C)C)C(=O)N[C@@H](CC(C)C)C(=O)N[C@@H](CO)C(=O)O)C(C)C)C(=O)O
B12: Compound 35 (peptide)
peptide: H-H[Aib]QGTFTSDYSKYLDSKAAK([γGlu-Palmitoyl])DFVEWLLSA-NH2
SMILES: CCCCCCCCCCCCCCCC(=O)N[C@@H](CCC(=O)NCCCC[C@H](NC(=O)[C@H](C)NC(=O)[C@H](C)NC(=O)[C@H](CCCCN)NC(=O)[C@H](CO)NC(=O)[C@H](CC(=O)O)NC(=O)[C@H](CC(C)C)NC(=O)[C@H](Cc1ccc(O)cc1)NC(=O)[C@H](CCCCN)NC(=O)[C@H](CO)NC(=O)[C@H](Cc1ccc(O)cc1)NC(=O)[C@H](CC(=O)O)NC(=O)[C@H](CO)NC(=O)[C@@H](NC(=O)[C@H](Cc1ccccc1)NC(=O)[C@@H](NC(=O)CNC(=O)[C@H](CCC(N)=O)NC(=O)C(C)(C)NC(=O)[C@@H](N)Cc1c[nH]cn1)[C@@H](C)O)[C@@H](C)O)C(=O)N[C@@H](CC(=O)O)C(=O)N[C@@H](Cc1ccccc1)C(=O)N[C@H](C(=O)N[C@@H](CCC(=O)O)C(=O)N[C@@H](Cc1c[nH]c2ccccc12)C(=O)N[C@@H](CC(C)C)C(=O)N[C@@H](CC(C)C)C(=O)N[C@@H](CO)C(=O)N[C@@H](C)C(N)=O)C(C)C)C(=O)O
B13: Compound 28 (peptide)
peptide: HXQGTFTSDYSKYLDSKAAHDFVEWLLSA
modifications: Aib at position 2; K(Hexadecanoyl-E) (Hexadecanoyl-αGlu) at position 17; C-terminal amide (NH2)
B14: Compound 19 (peptide)
peptide: H-H[Aib]QGTFTSDYSKYLDSK([γGlu-Palmitoyl])AAHDFVEWLL-OH
SMILES: CCCCCCCCCCCCCCCC(=O)N[C@@H](CCC(=O)NCCCC[C@H](NC(=O)[C@H](CO)NC(=O)[C@H](CC(=O)O)NC(=O)[C@H](CC(C)C)NC(=O)[C@H](Cc1ccc(O)cc1)NC(=O)[C@H](CCCCN)NC(=O)[C@H](CO)NC(=O)[C@H](Cc1ccc(O)cc1)NC(=O)[C@H](CC(=O)O)NC(=O)[C@H](CO)NC(=O)[C@@H](NC(=O)[C@H](Cc1ccccc1)NC(=O)[C@@H](NC(=O)CNC(=O)[C@H](CCC(N)=O)NC(=O)C(C)(C)NC(=O)[C@@H](N)Cc1c[nH]cn1)[C@@H](C)O)[C@@H](C)O)C(=O)N[C@@H](C)C(=O)N[C@@H](C)C(=O)N[C@@H](Cc1c[nH]cn1)C(=O)N[C@@H](CC(=O)O)C(=O)N[C@@H](Cc1ccccc1)C(=O)N[C@H](C(=O)N[C@@H](CCC(=O)O)C(=O)N[C@@H](Cc1c[nH]c2ccccc12)C(=O)N[C@@H](CC(C)C)C(=O)N[C@@H](CC(C)C)C(=O)O)C(C)C)C(=O)O
B15: Compound 34 (peptide)
peptide: H-H[Aib]QGTFTSDYSKYLDK([γGlu-Palmitoyl])KAAHDFVEWLLSA-NH2
SMILES: CCCCCCCCCCCCCCCC(=O)N[C@@H](CCC(=O)NCCCC[C@H](NC(=O)[C@H](CC(=O)O)NC(=O)[C@H](CC(C)C)NC(=O)[C@H](Cc1ccc(O)cc1)NC(=O)[C@H](CCCCN)NC(=O)[C@H](CO)NC(=O)[C@H](Cc1ccc(O)cc1)NC(=O)[C@H](CC(=O)O)NC(=O)[C@H](CO)NC(=O)[C@@H](NC(=O)[C@H](Cc1ccccc1)NC(=O)[C@@H](NC(=O)CNC(=O)[C@H](CCC(N)=O)NC(=O)C(C)(C)NC(=O)[C@@H](N)Cc1c[nH]cn1)[C@@H](C)O)[C@@H](C)O)C(=O)N[C@@H](CCCCN)C(=O)N[C@@H](C)C(=O)N[C@@H](C)C(=O)N[C@@H](Cc1c[nH]cn1)C(=O)N[C@@H](CC(=O)O)C(=O)N[C@@H](Cc1ccccc1)C(=O)N[C@H](C(=O)N[C@@H](CCC(=O)O)C(=O)N[C@@H](Cc1c[nH]c2ccccc12)C(=O)N[C@@H](CC(C)C)C(=O)N[C@@H](CC(C)C)C(=O)N[C@@H](CO)C(=O)N[C@@H](C)C(N)=O)C(C)C)C(=O)O
B16: Compound 24 (peptide)
peptide: HXQGTFTSDYSKYLDSKAAHDFVEWLLSA
modifications: Aib at position 2; K([2-Butyloctanoyl]-isoGlu) at position 17; C-terminal amide (NH2)

biological target: human glucagon-like peptide 1 receptor (GLP-1R) (human, UniProt P43220 24-463); assay: cell-based or functional assay
Sequence (P43220 24-463): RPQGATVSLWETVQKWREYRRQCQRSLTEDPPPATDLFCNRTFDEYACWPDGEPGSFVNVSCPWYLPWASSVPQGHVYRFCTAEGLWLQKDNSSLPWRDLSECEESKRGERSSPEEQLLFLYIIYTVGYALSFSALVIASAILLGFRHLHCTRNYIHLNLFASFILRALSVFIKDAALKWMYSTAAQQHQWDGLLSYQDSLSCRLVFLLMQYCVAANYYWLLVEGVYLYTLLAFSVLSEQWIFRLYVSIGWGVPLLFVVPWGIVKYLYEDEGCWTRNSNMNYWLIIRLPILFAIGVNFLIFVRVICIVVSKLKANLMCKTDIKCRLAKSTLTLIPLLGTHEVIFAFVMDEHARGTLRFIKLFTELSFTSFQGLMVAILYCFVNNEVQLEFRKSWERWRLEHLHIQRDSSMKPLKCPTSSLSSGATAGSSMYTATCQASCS

| EC50 (nM) GLP-1R, cAMP formation [nM] | Binder |
| --- | --- |
| 0.057 | B1 |
| 0.191 | H-H[Aib]QGTFTSDYSKYLDSKAAHDFVK([isoGlu-Palmitoyl])WLLSA-NH2 [Compound 36] |
| 0.014 | B2 |
| 0.199 | B3 |
| 0.131 | B4 |
| 0.152 | B5 |
| 0.069 | B6 |
| 0.103 | B7 |
| 0.077 | B8 |
| 0.132 | B9 |
| 0.195 | B10 |
| 0.14 | HXQGTFTSDYSKYLDSKAAHDFVEWLLSA (Aib at position 2; K(Hexadecanoyl) at position 17; C-terminal amide (NH2)) [Compound 23] |
| 0.066 | B11 |
| 0.202 | B12 |
| 0.097 | HXQGTFTSDYSKYLDSKAAHDFVEWLLSA (Aib at position 2; K(Dodecanoyl-isoGlu) at position 17; C-terminal amide (NH2)) [Compound 26] |
| 0.149 | B13 |
| 0.207 | H-H[Aib]QGTFTSDYSKYLDSKAAHDFVEWLLK([isoGlu-Palmitoyl])A-NH2 [Compound 37] |
| 0.16 | H-H[Aib]QGTFTSDYSKYLDSK([isoGlu-Palmitoyl])AAKDFVEWLLSA-NH2 [Compound 39] |
| 0.048 | B14 |
| 0.109 | B15 |
| 0.161 | B16 |

biological target: human glucagon receptor (Glucagon-R) (human, UniProt P47871 26-477); assay: cell-based or functional assay

| EC50 (nM) GluR, cAMP formation [nM] | Binder |
| --- | --- |
| 13.3 | B1 |
| 0.213 | H-H[Aib]QGTFTSDYSKYLDSKAAHDFVK([isoGlu-Palmitoyl])WLLSA-NH2 [Compound 36] |
| 26.4 | B2 |
| 0.123 | B3 |
| 0.389 | B4 |
| 0.147 | B5 |
| 0.103 | B6 |
| 0.151 | B7 |
| 0.15 | B8 |
| 0.11 | B9 |
| 0.193 | B10 |
| 0.124 | HXQGTFTSDYSKYLDSKAAHDFVEWLLSA (Aib at position 2; K(Hexadecanoyl) at position 17; C-terminal amide (NH2)) [Compound 23] |
| 0.091 | B11 |
| 0.18 | B12 |
| 0.116 | HXQGTFTSDYSKYLDSKAAHDFVEWLLSA (Aib at position 2; K(Dodecanoyl-isoGlu) at position 17; C-terminal amide (NH2)) [Compound 26] |
| 0.108 | B13 |
| 0.147 | H-H[Aib]QGTFTSDYSKYLDSKAAHDFVEWLLK([isoGlu-Palmitoyl])A-NH2 [Compound 37] |
| 0.24 | H-H[Aib]QGTFTSDYSKYLDSK([isoGlu-Palmitoyl])AAKDFVEWLLSA-NH2 [Compound 39] |
| 0.483 | B14 |
| 0.053 | B15 |
| 0.133 | B16 |
